{"source": "patent US20180162932A1", "about": "(ACADEMISCH MEDISCH CENTRUM, published 2018)", "molecules": {"B1": {"name": "mouse Noggin (other, UniProt P97466 28-232, looked up)", "chain": "QHYLHIRPAPSDNLPLVDLIEHPDPIFDPKEKDLNETLLRSLLGGHYDPGFMATSPPEDRPGGGGGPAGGAEDLAELDQLLRQRPSGAMPSEIKGLEFSEGLAQGKKQRLSKKLRRKLQMWLWSQTFCPVLYAWNDLGSRFWPRYVKVGSCFSKRSCSVPEGMVCKPSKSVHLTVLRWRCQRRGGQRCGWIPIQYPIISECKCSC"}, "B2": {"name": "human mature bone morphogenic protein 4 (ligand)", "chain": "KHHSQRARKKNKNCRRHSLYVDFSDVGWNDWIVAPPGYQAFYCHGDCPFPLADHLNSTNHAIVQTLVNSVNSSIPKACCVPTELSAISMLYLDEYDKVVLKNYQEMVVEGCGCR", "notes": "Recombinant, R&D Systems (314-BP-020); mature active dimer; also called BMP4; BMP-4"}}, "key": {"[1]": {"target": "B2", "test": "cell-based or functional assay"}, "[2]": {"target": "T1, mature bone morphogenic protein 2 (human, UniProt P12643 283-396)", "T1 sequence (P12643 283-396)": "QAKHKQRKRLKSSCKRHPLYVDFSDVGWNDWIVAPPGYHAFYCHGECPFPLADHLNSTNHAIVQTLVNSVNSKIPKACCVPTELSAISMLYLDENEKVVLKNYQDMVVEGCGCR", "test": "cell-based or functional assay"}, "[3]": {"target": "T2, human mature bone morphogenic protein 5 (human, UniProt P22003 340-454)", "T2 construct": "Often printed as BMPS in the text; also called BMP5; BMPS (so in the source)", "T2 sequence": "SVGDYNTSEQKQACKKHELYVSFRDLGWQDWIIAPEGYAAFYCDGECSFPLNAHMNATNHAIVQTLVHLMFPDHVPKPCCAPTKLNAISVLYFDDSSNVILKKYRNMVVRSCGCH", "test": "western blot of unreduced recombinant BMP, C4C4 as primary antibody", "experimental": "To determine the different forms of BMP4, recombinant proteins and carcinoma cell lines lysate were used. Protein concentrations of cell lysates were determined using Pierce™ BCA Protein Assay Kit (Pierce Biotechnology, Rockford, Ill. USA), following the manufacturer's protocol. Equal amount of sample were loaded (between 8 and 30 μg/lane) on a 10% SDS-polyacrylamide gel and subsequently blotted onto PVDF transfer membranes. The membranes were blocked with blocking solution (5% Nonfatmilk+Tris-Buffered Saline with Tween®-20 (TBST) or 5% bovine serum albumin (BSA)+TBST) and subsequently incubated with the appropriate primary antibody and secondary antibody. Afterwards, membranes were washed and incubate with chemiluminescent solution (Pierce™ ECL subtract, Pierce Biotechnology, Rockford, Ill. USA) and visualized using ImageQuant LAS 4000 (GE Healthcare Life Science). […] Secondary antibodies include: HRP-anti-rabbit (1:200; Cat. No. P0448; Dako), HRP-anti-mouse (1:2000; Cat. No. P0447; Dako) and HRP-anti-llama (1:1000; Cat. No. ab112786; Abcam)."}, "[4]": {"target": "B2", "test": "SPR, ratio of KD values", "procedure": "(§1) In a first set of experiments, controls and VHHs (either as monomers or dimers) were coupled to SPR chips and the measurement of BMP affinities was obtained by injecting the different BMPs to the plate.\n(§2) Serial dilutions (2.0-10 μg/ml) of purified VHHs were spotted on an amine-specific SensEye gold-film gel-type SPRchip (Ssens), using a Continuous Flow Microspotter (Wasatch Microfluidics, Salt Lake City, Utah, United States) as described (Lokate et al., 2007). BMP binding was analyzed on an IBIS MX96 (IBIS Technologies, Enschede, The Netherlands) instrument by performing injections with dilution series (0.05-2.0 μg/ml) of recombinant BMPs on the VHH-coated chip. In each injection, BMPs were injected and incubated for 8 min, followed by 15 min thorough washing with binding buffer (PBS+0.05% Tween20+0.05% sodium azide) to measure dissociation. Epitope binning was done by injecting VHH dilutions (2.0 μg/ml) over the chip, immediately after the dissociation step. Injections with blank binding buffer were used as reference. After each concatenated injection, the chip was regenerated with 10mM glycine-HCl, pH 2.0. Experimental data were processed with SPRintX software (IBIS Technologies) and kinetic parameters were determined using Scrubber2 software (BioLogic Software, Campbell, ACT, Australia). Binding constants were obtained by global fitting to a one-site binding model."}, "[5]": {"target": "B2", "test": "SPR (IBIS MX96), VHH or control on chip, BMP injected", "procedure": "as §1, §2"}, "[6]": {"target": "T1, mature bone morphogenic protein 2", "test": "SPR (IBIS), VHH spotted on the chip, BMP2 injected", "procedure": "as §1, §2"}, "[7]": {"target": "T2, human mature bone morphogenic protein 5", "test": "SPR, VHH on chip, BMP injected", "procedure": "as §2"}, "[8]": {"target": "T3, human mature bone morphogenic protein 7 (human, UniProt P18075 293-431)", "T3 construct": "also called BMP7; BMP-7", "T3 sequence": "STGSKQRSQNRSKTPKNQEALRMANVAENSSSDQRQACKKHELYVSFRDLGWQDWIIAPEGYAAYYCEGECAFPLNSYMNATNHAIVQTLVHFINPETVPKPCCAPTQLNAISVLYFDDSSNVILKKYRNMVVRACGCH", "test": "SPR, VHH on chip, BMP injected", "procedure": "as §2"}, "[9]": {"target": "T4, human mature bone morphogenic protein 6 (human, UniProt P22004 375-513)", "T4 construct": "also called BMP6; BMP-6", "T4 sequence": "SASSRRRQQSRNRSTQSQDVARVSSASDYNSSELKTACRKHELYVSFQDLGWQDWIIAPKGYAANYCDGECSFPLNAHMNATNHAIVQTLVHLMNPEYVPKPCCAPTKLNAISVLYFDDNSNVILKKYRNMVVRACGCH", "test": "SPR, VHH on chip, BMP injected", "procedure": "as §2"}, "[10]": {"target": "B2", "test": "titration ELISA of purified VHH on immobilized BMP4"}, "mouse Noggin": {"target": "B1", "test": "SPR (IBIS MX96), VHH or control on chip, BMP injected", "procedure": "as §1, §2"}, "[11]": {"target": "T4, human mature bone morphogenic protein 6", "test": "summary of SPR results"}}, "note": "Where “and” joins values, the source holds several entries; their conditions need not be identical. Equal values may be shown once."}
{"molecule": "anti-BMP4 R&D (Clone 66119, Mouse IgG2B, MAB757) (antibody)", "values": [{"measurement": "percent inhibition of the BMP4-specific signal at 100 ng/ml, BRE-luciferase, C2C12 cells", "setting": "[1]", "value": 30, "unit": "%"}]}
{"molecule": "human Noggin (from UniProt Q13253 28-232)", "values": [{"measurement": "IC50, BRE-luciferase, C2C12 cells", "setting": "[2]", "value": 1.6, "unit": "nM"}, {"measurement": "IC50, BRE-luciferase, C2C12 cells", "setting": "[1]", "value": 0.54, "unit": "nM"}]}
{"molecule": "C4C4 homo-bihead (designed binder, also called C4C4 dimer) EVQLVESGGGLVQAGGSLRLSCAASGRTFSTYAMGWFRQAPGKEREFVAAISKGGGITYYSDSVRGRFTISKENAKNTVYLQMNSLKPEDTAVYYCAADPVSSVAKSPVAYPYWGQGTQVTVSSGGGGSGGGGSEVQLVESGGGLVQAGGSLRLSCAASGRTFSTYAMGWFRQAPGKEREFVAAISKGGGITYYSDSVRGRFTISKENAKNTVYLQMNSLKPEDTAVYYCAADPVSSVAKSPVAYPYWGQGTQVTVSS", "values": [{"measurement": "binding result", "setting": "[3]", "value": "no binding (tested: 0.1 µg/ml primary antibody)"}, {"measurement": "fold higher affinity than BMPR1a", "setting": "[4]", "value": 70, "unit": "fold"}, {"measurement": "fold higher affinity than Noggin", "setting": "[4]", "value": 10, "unit": "fold"}, {"measurement": "IC50, BRE-luciferase, C2C12 cells", "setting": "[1]", "value": "~600 pM and 1.3 ng/ml and 45 nM"}, {"measurement": "fold increase in inhibition against monomer C4, BRE-luciferase, C2C12 cells", "setting": "[1]", "value": 9, "unit": "fold"}, {"measurement": "Kd", "setting": "[5]", "value": 0.0097, "unit": "nM"}]}
{"molecule": "C8C8 homo-bihead (designed binder) EVQLVESGGGLVQAGGSLRLSCAASGRTFRINDMGWYRQAPGKSRDMVARITSGGNTNYADSVKGRFTISRDNAKNTVYLQMNSLKPEDTAVYYCNADGLRFDSTRYRPFDSWGQGTQVTVSSGGGGSGGGGSEVQLVESGGGLVQAGGSLRLSCAASGRTFRINDMGWYRQAPGKSRDMVARITSGGNTNYADSVKGRFTISRDNAKNTVYLQMNSLKPEDTAVYYCNADGLRFDSTRYRPFDSWGQGTQVTVSS", "values": [{"measurement": "IC50, BRE-luciferase, C2C12 cells", "setting": "[2]", "value": 1.21, "unit": "nM"}, {"measurement": "IC50, BRE-luciferase, C2C12 cells", "setting": "[1]", "value": "~0.45", "unit": "nM"}, {"measurement": "fold potency on BMP4 against BMP2, BRE-luciferase, C2C12 cells", "setting": "[1]", "value": 16, "unit": "fold"}]}
{"molecule": "B1", "values": [{"measurement": "IC50, BRE-luciferase, C2C12 cells", "setting": "[2]", "value": "~2.5", "unit": "nM"}, {"measurement": "IC50, BRE-luciferase, C2C12 cells", "setting": "[1]", "value": "~0.615", "unit": "nM"}]}
{"molecule": "VHH C8 (VHH, also called C8 monomer) VHH: EVQLVESGGGLVQAGGSLRLSCAASGRTFRINDMGWYRQAPGKSRDMVARITSGGNTNYADSVKGRFTISRDNAKNTVYLQMNSLKPEDTAVYYCNADGLRFDSTRYRPFDSWGQGTQVTVSS", "values": [{"measurement": "binding result", "setting": "[6]", "value": "binds"}, {"measurement": "binding result", "setting": "[7]", "value": "no binding"}, {"measurement": "binding result", "setting": "[8]", "value": "no binding"}, {"measurement": "binding result", "setting": "[9]", "value": "no binding"}]}
{"molecule": "VHH C4 (VHH, Produced in E. coli periplasm with tags (anti-myc detection, TALON purification); also called C4 monomer; C4 monohead) VHH: EVQLVESGGGLVQAGGSLRLSCAASGRTFSTYAMGWFRQAPGKEREFVAAISKGGGITYYSDSVRGRFTISKENAKNTVYLQMNSLKPEDTAVYYCAADPVSSVAKSPVAYPYWGQGTQVTVSS", "values": [{"measurement": "EC50 (read off the curve)", "setting": "[10]", "value": "~3", "unit": "nM"}]}
{"molecule": "B2", "values": [{"measurement": "Kd", "setting": "mouse Noggin", "value": 0.091, "unit": "nM"}]}
{"molecule": "VHH E7 (VHH, also called E7 monomer) VHH: EVQLVESGGGLVQAGGSLRLSCAASGSIRGFVAMAWYRQAPGKQREWVATVTNGGTLYGDSVKGRFTGSRDNAKNTVYLQMNSLKPEDTAVYYCALRQIGASGYDYWGQGTQVTVSS", "values": [{"measurement": "binding result", "setting": "[11]", "value": "binds"}]}
